Test results reported in patent US9133271 (AbbVie / Abbott, dated 2015).

B1: SC16.10 (antibody, V domains shown)
VH: QVTLKESGPGILQSSQTLSLTCSFSGFSLSTSGMGVGWIRQPSGKGLEWLAHIWWDDVKRYNPVLKSRLTISKDTSSSQVFLKIASVDTADTATYYCARLVDDLYYFDYWGQGTTLTVSS
VL: QIVLTQSPAIMSASLGERVTMTCTASSSVSSSYLHWYQQKPGSSPKLWIYSTSNLASGVPTRFSGSGSGTSYSLTISSMEAEDAATYYCHQYHRSPFTFGSGTKLEIK
B2: hSC16.25 (antibody, V domains shown)
VL: EIVLTQSPDFQSVTPKEKVTITCSASSSVSYMHWYQQKPDQSPKLLIKDSSKLASGVPSRFSGSGSGTDFTLTINSLEAEDAATYYCQQWSSNPLTFGQGTKLEIK
V domain: QITLKESGPTLVKPTQTLTLTCTFSGFSLSTSGMGVGWIRQPPGKALEWLTDIWWDDNKYYNPSLKSRLTITKDTSKNQVVLTMTNMDPVDTATYYCARRVNYYYDPYYAMDYWGQGTTLVTVS
notes: CDR-grafted humanized antibody; also called humanized SC16.25
B3: hSC16.13 (antibody, V domains shown)
VH: QITLKESGPTLVKPTQTLTLTCTFSGFSLSTSGMGVGWIRQPPGKALEWLAHIWWDDVKRYSPSLKSRLTITKDTSKNQVVLTMTNMDPVDTATYYCARIVSFDNDVVSAMDYWGQGTLVTVSS
VL: DIQMTQSPSSLSASVGDRVTITCSASSSVSYMYWYQQKPGKAPKLLIYLTSNLASGVPSRFSGSGSGTDFTLTISSLQPEDFATYYCQQWRSNPFTFGQGTKLEIKR
notes: CDR-grafted humanized antibody; also called humanized SC16.13
B4: SC16.34 (antibody, V domains shown)
VH: QIQLVQSGPELKRPGETVKISCKASGYTFTNYGMNWVKQAPGKGLKWMGWINTYTGDPTYADDFKGRFAFSLETSASTAYLQINNLKNEDTATYFCARIGGNSPSDYWGQGTSLTVSS
VL: SIVMTQTPKFLLVSAGDRVTITCKASQSVSNDVAWYQQKPGQSPKLLIYYASNRYSGVPDRFTGSGYGTDFTFTISTVQAEDLAVYFCQQDYSSPWTFGGGTKLEIK
B5: SC16.56 (antibody, V domains shown)
VH: QIQLVQSGPELKKPGETVKISCKASGYTFTNYGMNWVKQAPGKGLKWMAWINTYTGEPTYADDFKGRFAFSLETSASTASLQIINLKNEDTATYFCARIGDSSPSDYWGQGTTLTVSS
VL: SIVMTQTPKFLLVSAGDRVTITCKASQSVSNDVVWYQQKPGQSPKLLIYYASNRYTGVPDRFAGSGYGTDFSFTISTVQAEDLAVYFCQQDYTSPWTFGGGTKLEIR
B6: SC16.65 (antibody, V domains shown)
VH: QVTLKESGPGILQPSQTLSLTCSFSGFSLSTSGMGVGWIRQPSGKGLEWLALIWWDDVKRYNPALKSRLTISKDASSSQVFLKIASVDTADTATYYCARIASYDYDVVYAMDYWGQGTSVSVSS
VL: QIVLTQSPALMSASPGEKVTMTCSVTSSVSYMYWYQQKPRSSPKPWIYLTSNLASGVPARFSGSGSGTSYSLTISSVEAEDAATYYCQQWRNNPFTFGSGTKVEIK
B7: SC16.13 (antibody, V domains shown)
VH: QVTLKESGPGILQPSQTLSLTCSFSGFSLSTSGMGVGWIRQPSGKGLEWLAHIWWDDVKRYNPALKSRLTISKDTSSSQVFLKIASVDTADTATYYCARIVSFDNDVVSAMDYWGQGTSVTVSS
VL: QIVLTQSPALVSASPGEKVTMTCSASSSVSYMYWYQQKPRSSPKPWIYLTSNLASGVPARFSGSGSGTSYSLTISSMEAEDAATYYCQQWRSNPFTFGSGTKLEIK
B8: SC16.67 (antibody, V domains shown)
VH: EVQLVETGGGLVQPKGSLKLSCAVSAFTFTTYAMNWVRQAPGKGLEWVARIRNKSNNYATYYADSVKDRFTISRDDSQSMLYLQMNNLKIEDTAMYYCVFYYDYVYWGQGTLVTVSA
VL: QAVVTQESALTTSPGETVTLTCRSSTGAVTTSNYANWIQEKPDHLFTGLIGGTNNRAPGVPARFSGSLIGDKAALTITGAQTEDEAIYFCGLWYSNHLVFGGGTKLTVL
notes: murine anti-DLL3 mAb
B9: SC16.25 (antibody, V domains shown)
VH: QVTLKESGPGILQPSQTLSLTCSFSGFSLSTSGMGVGWIRQPSGEGLEWLTDIWWDDNKYYNPSLKSRLTISKDTSSNQVFLNITSVDTADTATYYCARRVNYYYDPYYAMDYWGQGTSVTVSS
VL: QIVLTQSPAIMSASPGEKVTMTCSASSSVSYMHWYQQKSGTSPKRWIYDSSKLASGVPARFSGSGSGTSYSLTISSMEAEDAATYYCQQWSSNPLTFGAGTKLELK
B10: SC16.4 (antibody, V domains shown)
VH: QIQLVQSGPELKKPGETVKISCKASGYTFTDYSMHWVKQAPGKGLKWMGWINTETGEPGYADDFKGRFAFSLETSASTAYLQINNLKNEDTATYFCARYDGYAMDYWGQGTSVTVSS
VL: DIQMTQTTSSLSASLGDRVTISCRASQDISNYLNWYQQKPDGTVKLLIYYTSRLHSGVPSRFSGSGSGTDYSLTISNLELEDIATYFCQQGDMLPWTFGGGTKLEIK
B11: SC16.39 (antibody, V domains shown)
VH: EVKLEESGGGLVQFGGSMKLSCAASGFTFSDAWMDWVRQSPEKGLEWVAEIRNKANNHATYYPESVKGRFTISRDDSKSRVYLQMNNLRAEDTGIYYCTGYSSFAYWGQGTLVTVSA
VL: DIQMTQTTSSLSASLGDRVTISCRASQDVINYLNWYQQKPDGTVKLLIYYTSRLHSGVPSRFSGSGSRTDYSLTISNLEPEDIATYYCQQYSERPYTFGGGTKLEIK
B12: SC16.8 (antibody, V domains shown)
VH: QAQLQQSGAELVRPGTSVKVSCKASGYAFTNYLIEWVKQRPGQGLEWIGVINPGTGGTNYNENFKGKATLTADKSSSTAYMQLSSLTSDDSAVYFCARSPYDYHEGAMDYWGQGTSVTVSS
VL: EIQMTQSPSSMSASLGDRITITCQATQDIVKNLNWYQQKPGKPPSFLIYYAIELAEGVPSRFSGSGSGSDYSLTISNLESEDFADYYCLQFYEFPFTFGAGTKLELK
B13: SC16.15 (antibody, V domains shown)
VH: QVQLQQSGAELAKPGASVKMSCKASGYTFTRYWIHWIKQRPGQGLEWIGYINPTTVYTEFNQNFKDKATLTADKSSTTASMQLSSLTSEDSAVYYCARGGSNFFDYWGQGTTLTVSS
VL: DIQMTQSPASLAASVGETVAITCRASENIYYNLAWYQQKQGKSPQLLIYTANSLEDGVPSRFSGSGSGTQYSLKINSMQPEDSATYFCKQAYDVPPTFGGGTKLEIK

Key:
[1] = target: T1, human DLL3 on cells (h293-hDLL3 cells; endogenous DLL3 on NTX tumor cells) (human, UniProt Q9NYJ7 27-618); assay: cell-based or functional assay
T1 sequence: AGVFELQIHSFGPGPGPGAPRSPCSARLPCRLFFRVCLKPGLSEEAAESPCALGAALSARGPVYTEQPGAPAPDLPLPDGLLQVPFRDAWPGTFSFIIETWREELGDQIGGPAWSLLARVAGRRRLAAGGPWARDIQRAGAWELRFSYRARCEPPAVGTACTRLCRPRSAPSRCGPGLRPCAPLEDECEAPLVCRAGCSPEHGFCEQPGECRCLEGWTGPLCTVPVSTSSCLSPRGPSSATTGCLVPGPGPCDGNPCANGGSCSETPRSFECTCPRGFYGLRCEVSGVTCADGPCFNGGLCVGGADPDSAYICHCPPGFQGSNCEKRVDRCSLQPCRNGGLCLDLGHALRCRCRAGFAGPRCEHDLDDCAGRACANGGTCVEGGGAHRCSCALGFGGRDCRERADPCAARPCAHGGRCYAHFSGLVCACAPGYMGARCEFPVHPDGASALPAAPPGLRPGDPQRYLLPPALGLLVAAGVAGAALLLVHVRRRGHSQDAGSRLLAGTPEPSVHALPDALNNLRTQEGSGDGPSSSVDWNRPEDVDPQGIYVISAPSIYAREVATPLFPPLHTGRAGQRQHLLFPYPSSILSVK

[2] = target: T2, murine DLL3 on 293 cells (h293-mDLL3) (murine, UniProt O88516 33-584); assay: assay and form of the mouse antigen not given on the sheet; table of properties of humanized constructs
T2 sequence: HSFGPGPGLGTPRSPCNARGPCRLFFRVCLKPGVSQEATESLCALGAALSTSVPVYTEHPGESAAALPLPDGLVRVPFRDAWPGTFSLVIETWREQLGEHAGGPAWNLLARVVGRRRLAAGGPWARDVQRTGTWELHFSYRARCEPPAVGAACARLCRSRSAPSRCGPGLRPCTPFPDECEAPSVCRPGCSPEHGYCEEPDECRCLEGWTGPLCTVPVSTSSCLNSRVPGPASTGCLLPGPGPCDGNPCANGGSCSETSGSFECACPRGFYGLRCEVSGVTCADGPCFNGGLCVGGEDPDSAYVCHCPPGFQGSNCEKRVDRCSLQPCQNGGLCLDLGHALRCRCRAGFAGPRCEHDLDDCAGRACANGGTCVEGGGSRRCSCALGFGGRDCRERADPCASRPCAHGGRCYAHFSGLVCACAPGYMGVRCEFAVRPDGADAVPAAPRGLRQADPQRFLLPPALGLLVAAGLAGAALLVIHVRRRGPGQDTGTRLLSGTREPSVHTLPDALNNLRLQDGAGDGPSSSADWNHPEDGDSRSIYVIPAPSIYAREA

[3] = target: T1, human DLL3 on cells (h293-hDLL3 cells; …); assay: cell-based or functional assay; remark: listed apart in the source
[4] = target: T2, murine DLL3 on 293 cells (h293-mDLL3); assay: flow cytometry on 293 cells over-expressing murine DLL3

Binder	% Live Cells (in vitro), KDY66 cells, antibody plus anti-mouse IgG Fab-saporin [1] [%]	further results
B1	18	–
B2	–	binding result [2]: no binding
B3	–	binding result [2]: no binding
B4	12	EC50 of killing of OV26 NTX tumor cells with anti-mouse IgG Fab-saporin [3]: 5.7 pM
B5	16	–
B6	13	–
B7	31	–
B8	37	binding result [4]: no binding
B9	28	–
B10	49	–
B11	98	–
B12	82	–
B13	24	EC50 of killing of OV26 NTX tumor cells with anti-mouse IgG Fab-saporin [3]: 0.14 pM
